# Laboratory results as given in patent publication US20240400621A1, “PEPTIDES FOR METABOLIC SYNDROME” (ALPARIS, S.A. de C.V., priority 2021, published 2024).
# B1: peptide SEQ ID NO: 3 (carboxyl terminal domain of SEQ ID NO: 1) (peptide)
# chain: QLPIETPANNPEESDEADQAPWTPMPLEIAFQGDRESVLKAMNAITGMQDYLFTVNSIRIRNERMMPPPIANPAAAKPAAAQPATGAASLTPADEAAAPAAPAIQQVIKPYMGKEQVFVQVSLNLVHFNQPKAQEPSED
# Tests used:
# mice fed a high-fat diet [1] = test: Glucose tolerance test (GTT) in mice fed a high-fat diet; assay type: in vivo, mice (C57BL/6JN); settings: 12 weeks; intragastric daily; SEQ ID NO: 3 2.5 μg/mouse, SEQ ID NO: 2 0.6 or 0.2 μg/mouse
# Experimental: (§1) For all the in vivo testing, male mice of the C57BL/6JN strain between 8 to 10 weeks of age were used, housed in groups of 3 to 5 mice per cage with food and water ad libitum in ventilated racks, and whose microbiota were unified for 4 weeks.
# (§2) The mice received either 200 μL of a phosphate buffer solution (PBS) at pH 7.5 (as a vehicle), or 200 μL of the PBS solution, with each of the intragastric treatments daily for 12 weeks. They were fed either a Normal Diet (DN, Harlan, Teklad 2018SX) with 18% of the calories coming from fat, or a High-Fat Diet (DAG, Research Diets, D12491), with 60% of the calories coming from fat. […]
# The mice were subjected to fasting for 6 hours, and the baseline glucose values in the blood were determined using glucose test strips and a glucometer (Roche's ACCU-CHECK ACTIVE).
# Next, the mice received an intraperitoneal injection of 1.8 mg of glucose per gram of body weight, and the blood glucose values were recorded at 15, 30, 60, and 120 minutes after administration.
# FIGS. 19A and 19B show the area under the curve (AUC) of the glucose tolerance test of the mice, measured at week 0 and 12.
# [2] = Aggregation during ultrafiltration / buffer change; assay type: physicochemical
# Text: The protein of SEQ ID NO. 1, expressed in recombinant form in this invention, contains a tag of six residues of histidine at the carboxyl terminal end, allowing it to be purified by immobilized metal cation affinity chromatography (IMAC). Purification was initially evaluated with the soluble fractions of the two strains that were used for recombinant production, obtained by enzymatic lysis and sonication. The first approach with the Ni-NTA Agarose resin allowed for the recovery of 6% of the SEQ ID NO. 1 with a purity of 50-80%. An FPLC Ákta Prime chromatographic system and an XK16/20 column packed with 13 mL of Chelating Sepharose Fast Flow-Ni^+2 resin were used for purification. A minimum imidazole concentration of 30 mM was defined in both the sample to be injected and the equilibrium buffer. Elution was performed with 500 mM imidazole at 6.5 mL/min, resulting in a minimum recovery of 80% of SEQ ID No. 1 with 82% purity. The ultrafiltration of the tangential flow of SEQ ID NO. 1 during the chromatography stage, in order to concentrate and change the buffer, negatively impacted protein quality. However, the dialysis of EQ ID NO.
# However, the aggregation of SEQ ID NO. […] This was corroborated by the SDSPAGE analysis, in which the remaining protein in the soluble fraction presented fragments of lower molecular weight than that of SEQ ID NO. 1, but greater than 25 kDa. On the other hand, the precipitate turned out to be denatured SEQ ID NO. 1, but not degraded.
# Finally, SEQ ID NO. 4 and SEQ ID NO.
# IL-6 = IL-6 levels in mice fed a high-fat diet; assay type: in vivo, mice (C57BL/6JN); settings: 12 weeks; animals fed DAG
# Experimental: as §1
# (§3) The mice received either 200 μL of a phosphate buffer solution (PBS) at pH 7.5 (as a vehicle), or 200 μL of the PBS solution, with each of the intragastric treatments daily for 12 weeks. They were fed either a Normal Diet (DN, Harlan, Teklad 2018SX) with 18% of the calories coming from fat, or a High-Fat Diet (DAG, Research Diets, D12491), with 60% of the calories coming from fat.
# (§4) All the mice were randomly divided into five experimental groups in order to study the effect of SEQ ID NO: 3 and SEQ ID NO: 2 correctly: • Group 1—Mice with DN that received 200 μl of PBS intragastrically. • Group 2—Mice with DAG that received 200 μl of PBS intragastrically. • Group 3—Mice with DAG that received 200 μl of PBS with SEQ ID NO: 3 intragastrically at a dose of: 2.5 μg/mouse. • Group 4—Mice with DAG that received 200 μl of PBS with SEQ ID NO: 2 intragastrically at a dose of 0.6 μg/mouse (high dose). • Group 5—Mice with DAG that received 200 μl of PBS with SEQ ID NO: 2 intragastrically at a dose of 0.2 μg/mouse (low dose).
# mice fed a high-fat diet [3] = test: Insulin resistance test (PRI) in mice fed a high-fat diet; assay type: in vivo, mice (C57BL/6JN); settings: 12 weeks; intragastric daily; SEQ ID NO: 3 2.5 μg/mouse, SEQ ID NO: 2 0.6 or 0.2 μg/mouse
# Experimental: as §1, §2
# The mice were subjected to fasting for 6 hours and the baseline glucose values were determined, as described above. Subsequently, the mice received an intraperitoneal injection of 1 mU of insulin per gram of body weight, and blood glucose values were recorded at 15, 30, 60, and 120 minutes after administration. The area under the curve (AUC) of the insulin resistance test was calculated considering the glucose decrease between time T0 and T15 using the absolute glucose values, as shown in FIGS. 20A and 20B.
# leptin = test: Leptin levels in mice fed a high-fat diet; assay type: in vivo, mice (C57BL/6JN); settings: 12 weeks; compared to mice fed only DAG
# Experimental: as §1, §3
# as §4, with “(low dose). […]” for “(low dose).”
# TNFα = test: Circulating TNFα levels in mice fed a high-fat diet; assay type: in vivo, mice (C57BL/6JN); settings: 12 weeks; versus DAG; including SEQ ID NO: 2 at low doses
# Experimental: as §1, §2
# (§5) To determine the effect of the peptides SEQ ID NO: 2 and SEQ ID NO: 3 in attenuating the inflammatory process in adipose tissue, the cellular infiltrate of the adipose tissue of the mice was quantified after they had been fed DAG.
# adipose tissue = test: Cellular infiltrate / inflammatory process in adipose tissue of mice fed a high-fat diet; assay type: in vivo, mice (C57BL/6JN)
# Experimental: as §1, §3, §4, §5
# adiponectin = test: Adiponectin levels in mice fed a high-fat diet; assay type: in vivo, mice (C57BL/6JN); settings: 12 weeks; fall induced by DAG
# Experimental: as §1, §3
# as §4, with “(low dose). […]” for “(low dose).”
molecule,measurement,setting,value
B1,glucose tolerance (AUC of GTT) versus DAG group,mice fed a high-fat diet [1],improved glucose tolerance
same,aggregation in ultrafiltration operations,[2],no visible aggregation
same,IL-6 levels,IL-6,dramatic decrease in IL-6 levels
same,insulin sensitivity (AUC of insulin resistance test) versus DAG group,mice fed a high-fat diet [3],improve insulin sensitivity
same,leptin secretion,leptin,decrease in leptin secretion
same,circulating levels of TNFα,TNFα,prevented the increase in the circulating levels
same,cellular infiltrate of adipose tissue,"adipose tissue; 12 weeks, versus DAG group",prevented the increase in cellular infiltrate induced by DAG
same,inflammatory process in adipose tissue,adipose tissue; SEQ ID NO:2 in high or low doses,attenuate the inflammatory process in adipose tissue
same,adiponectin in circulation,adiponectin,tendency to prevent a fall of adiponectin
